Where a chain is given by its changes, count along the chain named.
T1: 26mer peptide of γ-gliadin
T1 chain: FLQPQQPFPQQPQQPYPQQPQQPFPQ

T2: 33mer peptide of α-gliadin
T2 chain: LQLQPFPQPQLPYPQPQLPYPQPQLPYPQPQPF

T3: B08-E2E7
T3 chain: PQQPIPQQPQPYPQQ

T4: W02-E07
T4 chain: LQPFPQPQLPYPQPQ

T5: W03-E07
T5 chain: QPFPQPQQPFPWQP

T6: R11-E4E7
T6 chain: QPFPQQPEQIIPQQP

B1: Kuma020 (protein)
chain: AAPTAYTPLDVAQAYQFPEGLDGQGQCIAIIELGGGYDEASLAQYFASLGVPAPQVVSVSVDGASNQPTGDPKGPDGEVELDIEVAGALAPGAKFAVYFAPDTTAGFLDAITTAIHDPTLKPSVVSISWSGPEDSWTSAAIAAMNRAFLDAAALGVTVLAAAGDSGSTSGEQDGLYHVHFPAASPYVLACGGTRLVASGGRIAQETVWNDGPDGGATGGGVSRIFPLPAWQEHANVPPSANPGASSGRGVPDLAGNADPATGYEVVIDGEATVTGGTSAVAPLFAALVARINQKLGKAVGYLNPTLYQLPADVFHDITEGNNDIANRAQIYQAGPGWDPCTGLGSPIGVRLLQALLPSASQPQPGSTENLYFQSGALEHHHHHH
B2: Kuma040 (protein)
chain: B1 chain with E80T, S130A, S169G, H179F, D210Q, A260Q
B3: Kuma050 (protein)
chain: B1 chain with K73E, E80T, L81V, S165Q, D210Q, A260Q, T274I
B4: Kuma030 (protein)
chain: B1 chain with K73E, E80T, S165Q, D210Q, A260Q

How the values were obtained:
[1] = molecular target: T1, 26mer peptide of γ-gliadin
[2] = molecular target: T2, 33mer peptide of α-gliadin
B08-E2E7 = molecular target: T3, B08-E2E7
W02-E07 = molecular target: T4, W02-E07
W03-E07 = molecular target: T5, W03-E07
R11-E4E7 = molecular target: T6, R11-E4E7

Row | Protein | Activity Improvement over Background (Kuma010) (peptides containing PQL) | appearance of peptide breakdown products over time [1] | Activity Improvement over Background (Kuma010) (peptides containing PQQ) | appearance of peptide breakdown products over time [2] | Kcat (DQ2.5-glia-ω1) [s⁻¹] | Km (DQ2.5-glia-ω1) [mM] | Vmax (DQ2.5-glia-ω1) [M/s] | kcat/Km (DQ2.5-glia-ω1) [M⁻¹ s⁻¹] | Kcat (DQ2.5-glia-α1a) [s⁻¹] | Km (DQ2.5-glia-α1a) [mM] | Vmax (DQ2.5-glia-α1a) [M/s] | kcat/Km (DQ2.5-glia-α1a) [M⁻¹ s⁻¹] | Activity Improvement over Background (Kuma021) (peptides containing PQL) | Activity Improvement over Background (Kuma021) (peptides containing PQQ) | other results
1 | B1 | 7-19x (PQL) | Kuma020 demonstrated a moderate amount of activity on both peptides | 15-35x (PQQ) | Kuma020 demonstrated a moderate amount of activity on both peptides | – | – | – | – | – | – | – | – | – | – | –
2 | B2 | 35-50x (PQL) | Kuma040 demonstrated activity almost as potent as Kuma030 especially against the 26mer peptide | 30-40x (PQQ); | Kuma040 demonstrated activity almost as potent as Kuma030 especially against the 26mer peptide | 24.6 | 15.3 | 2.46e-06 | 1600 | 16.3 | 0.86 | 1.49e-06 | 19100 | – | – | –
3 | B3 | – | very poor activity on the 26mer peptide | – | Kuma050 demonstrated good activity on the 33mer peptide | 27.8 | 5 | 2.78e-06 | 56 | 14.2 | 2.5 | 1.42e-06 | 5610 | 1.5-2x (PQL) | 0.01-0.2x (PQQ) | –
4 | B4 | – | In both cases, Kuma030 was the dominant enzyme tested | – | In both cases, Kuma030 was the dominant enzyme tested | 27.3 | 8.4 | 2.73e-06 | 3270 | 17.4 | 1.9 | 1.74e-06 | 9030 | 1.2-2x (PQL) | 1.2-2x (PQQ) | activity relative to Kuma010 (peptides containing PQL): 11-fold more active against peptides containing PQL; activity relative to Kuma040 (peptides containing PQL): Kuma030 is 2-fold more active on PQQ, and 2-fold less active on PQL, than Kuma040; cleavage products by mass spectroscopy (B08-E2E7): Kuma030 cleaved each peptide after the PQ dipeptide motif; cleavage products by mass spectroscopy (W02-E07): Kuma030 cleaved each peptide after the PQ dipeptide motif; activity relative to Kuma010 (peptides containing PQQ): 44-fold more active against peptides containing PQQ; activity relative to Kuma040 (peptides containing PQQ): Kuma030 is 2-fold more active on PQQ, and 2-fold less active on PQL, than Kuma040; cleavage products by mass spectroscopy [2]: Kuma030 cleaved each peptide after the PQ dipeptide motif; cleavage products by mass spectroscopy (W03-E07): Kuma030 cleaved each peptide after the PQ dipeptide motif; cleavage products by mass spectroscopy (R11-E4E7): Kuma030 cleaved each peptide after the PQ dipeptide motif

— patent US20180142226
